Test results reported in publication PMC3870252, “The N-Terminal Membrane-Spanning Domain of the Escherichia coli DNA Translocase FtsK Hexamerizes at Midcell” (mBio, 2013).
Where “and” joins values, the source holds several entries; their conditions need not be identical. Equal values may be shown once. Blank lines part the entries; values can stand above or below the molecule they belong to.

Legend:
[1] = biological target: EcFtsKN (purified N-terminal domain of FtsK from E. coli) (E. coli); assay: oligomer bands on SDS-PAGE of SEC fractions; fractions of the Superdex S-200 second purification step at a lower DDM detergent concentration, 12% Coomassie blue-stained SDS-PAGE
[2] = biological target: TtFtsKN (purified N-terminal domain of FtsK from Thermoanaerobacter tengcongensis) (Thermoanaerobacter tengcongensis); assay: as above
[3] = biological target: TtFtsKN (purified N-terminal domain of FtsK from Thermoanaerobacter tengcongensis) (Thermoanaerobacter tengcongensis); assay: SEC-MALS; Superdex S-200 column, in DDM detergent; masses after subtraction of the micelle contribution; hexamer and monomer peaks
[4] = biological target: the molecule itself; assay: quantitative live-cell fluorescence stoichiometry (widefield microscopy); live E. coli in minimal glycerol medium; integrated midcell fluorescence divided by the intensity of a single YPet fluorophore; periodicity from the power spectrum of measured stoichiometries

stoichiometry N [1]: 2 and 6
Molecule: EcFtsKN (purified N-terminal domain of FtsK from E. coli) (domain or fragment)

stoichiometry N [2]: 2 and 6
stoichiometry N [3]: 6
Molecule: TtFtsKN (purified N-terminal domain of FtsK from Thermoanaerobacter tengcongensis) (domain or fragment)

B1: FtsKΔC-YPet (FtsK derivative lacking the C-terminal domain, amino acids 1 to 818) (domain or fragment, E. coli, UniProt P46889 1-818, looked up)
chain: MSQEYIEDKEVTLTKLSSGRRLLEALLILIVLFAVWLMAALLSFNPSDPSWSQTAWHEPIHNLGGMPGAWLADTLFFIFGVMAYTIPVIIVGGCWFAWRHQSSDEYIDYFAVSLRIIGVLALILTSCGLAAINADDIWYFASGGVIGSLLSTTLQPLLHSSGGTIALLCVWAAGLTLFTGWSWVTIAEKLGGWILNILTFASNRTRRDDTWVDEDEYEDDEEYEDENHGKQHESRRARILRGALARRKRLAEKFINPMGRQTDAALFSGKRMDDDEEITYTARGVAADPDDVLFSGNRATQPEYDEYDPLLNGAPITEPVAVAAAATTATQSWAAPVEPVTQTPPVASVDVPPAQPTVAWQPVPGPQTGEPVIAPAPEGYPQQSQYAQPAVQYNEPLQQPVQPQQPYYAPAAEQPAQQPYYAPAPEQPVAGNAWQAEEQQSTFAPQSTYQTEQTYQQPAAQEPLYQQPQPVEQQPVVEPEPVVEETKPARPPLYYFEEVEEKRAREREQLAAWYQPIPEPVKEPEPIKSSLKAPSVAAVPPVEAAAAVSPLASGVKKATLATGAAATVAAPVFSLANSGGPRPQVKEGIGPQLPRPKRIRVPTRRELASYGIKLPSQRAAEEKAREAQRNQYDSGDQYNDDEIDAMQQDELARQFAQTQQQRYGEQYQHDVPVNAEDADAAAEAELARQFAQTQQQRYSGEQPAGANPFSLDDFEFSPMKALLDDGPHEPLFTPIVEPVQQPQQPVAPQQQYQQPQQPVPPQPQYQQPQQPVAPQPQYQQPQQPVAPQQQYQQPQQPVAPQQQYQQPQQPVAPQPQDT
notes: FtsK, Escherichia coli, amino acids 1 to 818 (lacks the C-terminal translocase domain); source: expressed from the endogenous chromosomal locus, E. coli K-12 AB1157 derivative, in live cells; not shown: YPet, C-terminal, kept
stoichiometry N [4]: 6.05

B2: FtsKN-YPet (N-terminal domain of E. coli FtsK, amino acids 1 to 210) (domain or fragment, UniProt P46889 1-210, looked up)
chain: MSQEYIEDKEVTLTKLSSGRRLLEALLILIVLFAVWLMAALLSFNPSDPSWSQTAWHEPIHNLGGMPGAWLADTLFFIFGVMAYTIPVIIVGGCWFAWRHQSSDEYIDYFAVSLRIIGVLALILTSCGLAAINADDIWYFASGGVIGSLLSTTLQPLLHSSGGTIALLCVWAAGLTLFTGWSWVTIAEKLGGWILNILTFASNRTRRDDT
notes: FtsK, Escherichia coli, N-terminal membrane-spanning domain, amino acids 1 to 210; source: expressed from the endogenous chromosomal locus, E. coli K-12 AB1157 derivative, in live cells; not shown: YPet, C-terminal, kept
stoichiometry N [4]: 6

B3: FtsK-YPet (wild-type E. coli FtsK with a C-terminal YPet fusion) (natural protein, UniProt P46889 1-1329, looked up)
chain: MSQEYIEDKEVTLTKLSSGRRLLEALLILIVLFAVWLMAALLSFNPSDPSWSQTAWHEPIHNLGGMPGAWLADTLFFIFGVMAYTIPVIIVGGCWFAWRHQSSDEYIDYFAVSLRIIGVLALILTSCGLAAINADDIWYFASGGVIGSLLSTTLQPLLHSSGGTIALLCVWAAGLTLFTGWSWVTIAEKLGGWILNILTFASNRTRRDDTWVDEDEYEDDEEYEDENHGKQHESRRARILRGALARRKRLAEKFINPMGRQTDAALFSGKRMDDDEEITYTARGVAADPDDVLFSGNRATQPEYDEYDPLLNGAPITEPVAVAAAATTATQSWAAPVEPVTQTPPVASVDVPPAQPTVAWQPVPGPQTGEPVIAPAPEGYPQQSQYAQPAVQYNEPLQQPVQPQQPYYAPAAEQPAQQPYYAPAPEQPVAGNAWQAEEQQSTFAPQSTYQTEQTYQQPAAQEPLYQQPQPVEQQPVVEPEPVVEETKPARPPLYYFEEVEEKRAREREQLAAWYQPIPEPVKEPEPIKSSLKAPSVAAVPPVEAAAAVSPLASGVKKATLATGAAATVAAPVFSLANSGGPRPQVKEGIGPQLPRPKRIRVPTRRELASYGIKLPSQRAAEEKAREAQRNQYDSGDQYNDDEIDAMQQDELARQFAQTQQQRYGEQYQHDVPVNAEDADAAAEAELARQFAQTQQQRYSGEQPAGANPFSLDDFEFSPMKALLDDGPHEPLFTPIVEPVQQPQQPVAPQQQYQQPQQPVPPQPQYQQPQQPVAPQPQYQQPQQPVAPQQQYQQPQQPVAPQQQYQQPQQPVAPQPQDTLLHPLLMRNGDSRPLHKPTTPLPSLDLLTPPPSEVEPVDTFALEQMARLVEARLADFRIKADVVNYSPGPVITRFELNLAPGVKAARISNLSRDLARSLSTVAVRVVEVIPGKPYVGLELPNKKRQTVYLREVLDNAKFRDNPSPLTVVLGKDIAGEPVVADLAKMPHLLVAGTTGSGKSVGVNAMILSMLYKAQPEDVRFIMIDPKMLELSVYEGIPHLLTEVVTDMKDAANALRWCVNEMERRYKLMSALGVRNLAGYNEKIAEADRMMRPIPDPYWKPGDSMDAQHPVLKKEPYIVVLVDEFADLMMTVGKKVEELIARLAQKARAAGIHLVLATQRPSVDVITGLIKANIPTRIAFTVSSKIDSRTILDQAGAESLLGMGDMLYSGPNSTLPVRVHGAFVRDQEVHAVVQDWKARGRPQYVDGITSDSESEGGAGGFDGAEELDPLFDQAVQFVTEKRKASISGVQRQFRIGYNRAARIIEQMEAQGIVSEQGHNGNREVLAPPPFD
notes: FtsK, DNA translocase, Escherichia coli; wild-type protein, 1,329 amino acids, integral membrane protein; also called wild-type FtsK; source: expressed from the endogenous wild-type chromosomal locus, E. coli K-12 AB1157 derivative, in live cells; not shown: YPet, C-terminal, kept
stoichiometry N [4]: 6.12
